{"source": "paper PMC8639918", "about": "(2021)", "binders": {"B1": {"name": "SPX1^1–259 (C-terminally truncated fragment of rice SPX1) (domain or fragment)", "chain": "MKFGKSLSSQIVETLPEWRDKFLSYKDLKKRLKLIGGGGGGEERQAKRARVAADGGEEEAAAAAMTPEEAGFMRLLEAELDKFNSFFVEKEEEYIIRQKELQDRVARAAGRESKEELMRVRKEIVDFHGEMVLLENYSALNYTGLVKILKKYDKRTGALIRLPFIQKVLQQPFFTTDLLYKLVKQCEAMLDQLLPSNELSVSSEDGRGDSTNEDKPSNPSSSLVNGGTIPELDEIEYMESMYMKGTVAALRSLKEIRSG"}}, "target": "PHR2^(230–426 L348A/L358A/I362A) (rice, UniProt Q6Z156 230-426, L348A | L358A | I362A)", "assay": "ITC; with InsP6"}
{"binder": "B1", "values": [{"measurement": "Kd", "value": 140, "unit": "nM"}]}
